The record followed here is article PMC6743065, “Structural and functional characterization of the mitochondrial complex IV assembly factor Coa6” (Life Science Alliance, 2019).

To fix the notation:
B1: pathogenic mutant protein ^W59CCoa6 (natural protein, human)
chain: GPLGSMAAPSMKERQVCCGARDEYWKCLDENLEDASQCKKLRSSFESSCPQQWIKYFDKRRDYLKFKEKFEAGQFEPSETTAKS
notes: five residues left at the N terminus after cleavage of the GST tag with PreScission Protease; Coa6, human; residues 47-125 of the full-length Coa6 isoform 1 (UniProtKB Q5JTJ3) with the patient mutation W59C; In the crystal, Cys59 of each chain is joined by an intermolecular disulfide to Cys59 of another chain; not shown: GST, N-terminal, cleaved
B2: ^Y97ACoa6 (natural protein, human)
chain: B1 chain with C18W, Y56A
notes: five residues left at the N terminus after cleavage of the GST tag with PreScission Protease; Coa6, human; residues 47-125 of the full-length Coa6 isoform 1 (UniProtKB Q5JTJ3), mutation introduced into the ^WTCoa6 ORF; not shown: GST, N-terminal, cleaved
B3: ^Y104ACoa6 (natural protein, human)
chain: B1 chain with C18W, Y63A
notes: as for B2
B4: human wild-type Coa6 (^WTCoa6) (natural protein)
chain: B1 chain with C18W
notes: five residues left at the N terminus after cleavage of the GST tag with PreScission Protease; Coa6, human; isoform 3, composed of residues 47-125 of the full-length Coa6 isoform 1 (UniProtKB Q5JTJ3); the N-terminal residue is numbered Met47; Fully oxidized: intramolecular disulfides Cys58-Cys90 and Cys68-Cys79; also called Coa6 isoform 3; not shown: GST, N-terminal, cleaved
B5: ^Y97A/Y104ACoa6 (natural protein, human)
chain: B1 chain with C18W, Y56A, Y63A
notes: five residues left at the N terminus after cleavage of the GST tag with PreScission Protease; Coa6, human; residues 47-125 of the full-length Coa6 isoform 1 (UniProtKB Q5JTJ3), mutations introduced into the ^WTCoa6 ORF; not shown: GST, N-terminal, cleaved
B6: ^R101ACoa6 (natural protein, human)
chain: B1 chain with C18W, R60A
notes: as for B2

Positions count from the first letter of the chain named. Names may count otherwise.

One series concerns the molecule itself. As to the kind of experiment: crystal structure; ^W59CCoa6 25 mg/ml in 20 mM Tris-MES pH 8.0, 150 mM NaCl; crystallized with 0.1 M Bis-Tris pH 5.7, 0.23 M MgCl2, 29% PEG 3350, 20°C; 2.2 Å; four molecules per asymmetric unit.
B1: the binding result is reported as “binds”.

The next series concerns the molecule itself. As to the kind of experiment: SEC; analytical SEC, Superdex 200 Increase 3.2/300, 100 μg protein, 20 mM Tris-MES pH 8.0, 150 mM NaCl, 0.05 ml/min; elution volumes compared with that of ^WTCoa6. (In gel filtration, larger molecules generally elute earlier.)
For orientation: stoichiometry N means a count of units in the complex or per binding partner. B2: the “stoichiometry N” value was found to be 2. As for B3, the “stoichiometry N” value was found to be 2.

With B4, the “stoichiometry N” value stood at 2. Same read-out and setting: for B5 the value was 2. On the same count and under the same terms, next, B6: 2.
